Reference: patent publication US20250361274A1, “PEPTIDE AND PEPTIDE-CONTAINING AGENT” (PEPTIDREAM INC., priority 2022, published 2025)
Numbered stars: 1 amine (or outer) side, 2 acyl side, 3 side chain; on linkers, the order of the positions; unused ones are H or OH. Bridge positions count the residues as written; N and C are the ends. Square brackets hold non-standard residues; d marks the D form. Ends that are not written are not given here. KCOpipzaa = N6-(4-(carboxymethyl)piperazine-1-carbonyl)-L-lysine, O=C(NCCCC[C@H](N[*:1])C(=O)[*:2])N1CCN(CC(=O)[*:3])CC1; Bph3F = (S)-2-amino-3-(3'-fluoro-[1,1'-biphenyl]-4-yl)propanoic acid, O=C([C@H](Cc1ccc(-c2cccc(F)c2)cc1)N[*:1])[*:2]; Cha4tH = (S)-2-amino-3-((1r,4S)-4-hydroxycyclohexyl)propanoic acid, O=C([C@H](C[C@H]1CC[C@H](O[*:3])CC1)N[*:1])[*:2]; pBph3F = (S)-2-amino-3-(3-fluoro-[1,1'-biphenyl]-4-yl)propanoic acid, O=C([C@H](Cc1ccc(-c2ccccc2)cc1F)N[*:1])[*:2]; 3Pal(6-Ph) = N[C@@H](Cc1ccc(-c2ccccc2)nc1)C(=O)O; Phe(4-COOH) = N[C@@H](Cc1ccc(C(=O)O)cc1)C(=O)O; NMePhe(4-Cl) = CN[C@@H](Cc1ccc(Cl)cc1)C(=O)O; NMePhe(3-Me) = CN[C@@H](Cc1cccc(C)c1)C(=O)O; NMePhe(4-Me) = CN[C@@H](Cc1ccc(C)cc1)C(=O)O; Bip = N[C@@H](Cc1ccc(-c2ccccc2)cc1)C(=O)O; 3Pal(6-NH2) = Nc1ccc(C[C@H](N)C(=O)O)cn1; Phe(4-F) = N[C@@H](Cc1ccc(F)cc1)C(=O)O; Hyp = O=C(O)[C@@H]1C[C@@H](O)CN1; NMeF = CN[C@@H](Cc1ccccc1)C(=O)O; 4Pal = N[C@@H](Cc1ccncc1)C(=O)O; Cha = N[C@@H](CC1CCCCC1)C(=O)O; βAla = NCCC(=O)O

Tests used:
BMP4 = target: T1, BMP4 (Homo sapiens, UniProt P12644); experiment: BMP4 signal transduction inhibitory activity: SMAD1 phosphorylation by BMP4 stimulus, AlphaLISA SureFire, A549 cells; assay type: cell-based; conditions: for aLIZA BMP4 (0.2 nM) % Inh: SMAD1 phosphorylation by BMP4 stimulus; for aLISA BMP4: A549 cells
T1 sequence (P12644 293-408): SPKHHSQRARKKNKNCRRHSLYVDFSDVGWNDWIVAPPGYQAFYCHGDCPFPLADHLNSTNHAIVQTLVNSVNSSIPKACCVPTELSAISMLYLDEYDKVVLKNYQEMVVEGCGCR

BMP7 = target: T2, BMP7 (Homo sapiens, UniProt P18075); experiment: BMP7 signal transduction inhibitory activity: SMAD1 phosphorylation by BMP7 stimulus, A549 cells; assay type: cell-based; conditions: for aLIZA BMP7 (10 nM) % Inh: SMAD1 phosphorylation by BMP7 stimulus; for aLISA BMP7: A549 cells
T2 sequence (P18075 293-431): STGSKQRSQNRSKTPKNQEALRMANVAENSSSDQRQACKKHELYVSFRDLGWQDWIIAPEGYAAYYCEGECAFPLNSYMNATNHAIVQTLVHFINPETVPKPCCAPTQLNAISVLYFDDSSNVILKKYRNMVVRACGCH
Procedure, shortened: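 Inhibition is read as reduced BMP7-driven SMAD1 phosphorylation in human A549 cells, with the BMP7 stimulus at 10 nM. Three-point peptide concentrations spanned 1–1,000 nM depending on the peptide series. Some peptides received eight-point, 1/3-ratio titrations from 100 nM or 1,000 nM, alongside a Noggin control.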

[1] = BMP4 0.2 nM stimulus, peptide conc. in assay 2, 20, 200 nM
[2] = BMP7 10 nM stimulus, peptide conc. in assay 10, 30, 90 nM
[3] = peptide conc. in assay 0.02, 0.2, 2 nM, class symbols
[4] = peptide conc. in assay 10, 100, 1000 nM, class symbols
[5] = SMAD1 phosphorylation, BMP4 0.2 nM, peptide conc. in assay 0.2, 2, 20 nM
[6] = SMAD1 phosphorylation, BMP7 10 nM, peptide conc. in assay 1, 10, 100 nM
[7] = BMP4 0.2 nM stimulus, peptide conc. in assay 0.02, 0.2, 2 nM, class symbols
[8] = BMP7 10 nM stimulus, peptide conc. in assay 10, 100, 1000 nM, class symbols
[9] = BMP7 10 nM stimulus, peptide conc. in assay 100, 300, 1000 nM, class symbols

## 311 ({CH2CO}-ERV[Phe(4-COOH)]V[KCOpipzaa]R[3Pal(6-Ph)][KCOpipzaa]Y[Hyp][Bph3F]Y[Phe(4-COOH)][Phe(4-COOH)]SCG-NH2; thioether N-17 (inferred)) [compound 311]
BMP4; BMP4 0.2 nM, peptide 0.02, 0.2, 2 nM, Table 6
  aLIZA BMP4 (0.2 nM) % inh: B (showed less than 30% of inhibitory activity in 0.02 nM-addition zone and showed 30% or more of inhibitory activity in 0.2 nM-addition zone)
BMP7; BMP7 10 nM, peptide 10, 100, 1000 nM, Table 6
  aLIZA BMP7 (10 nM) % inh: E (showed less than 30% of inhibitory activity in 100 nM-addition zone and showed 30% or more of inhibitory activity in 1,000 nM-addition zone)

## 396 ([Phe(4-F)]G[NMeF]G[Bip]GDD[Cha]A[NMePhe(4-Me)]LHCG-NH2; not fully specified) [compound 396]
BMP4; BMP4 0.2 nM stimulus, peptide conc. in assay 0.2, 2, 20 nM
  aLISA BMP4 (0.2 nM) % inh: A (showed less than 30% of inhibitory activity in 2 nM-peptide-addition zone and showed 30% or more of inhibitory activity in 20 nM-addition zone)
BMP7; BMP7 10 nM stimulus, peptide conc. in assay 1, 10, 100 nM
  aLISA BMP7 (10 nM) % inh: C (showed less than 30% of inhibitory activity in a zone to which the peptide was added in an amount of 1 nM and showed 30% or more of inhibitory activity in 10 nM-addition zone)

## 386 (FG[NMePhe(3-Me)]G[Bip]GDD[Cha]A[NMeF]LHCG-NH2; not fully specified) [compound 386]
BMP4; [1]
  aLISA BMP4 (0.2 nM) % inh: B (showed less than 30% of inhibitory activity in 20 nM-addition zone and showed 30% or more of inhibitory activity in 200 nM-addition zone)
BMP7; [2]
  aLISA BMP7 (10 nM) % inh: F (showed less than 30% of inhibitory activity in 10 nM-addition zone and showed 30% or more of inhibitory activity in 30 nM-addition zone)

## 263 (ERVYV[KCOpipzaa]R[3Pal(6-Ph)]SYV[Bip]Y[Phe(4-COOH)][Phe(4-COOH)]SCG-NH2; not fully specified) [compound 263]
BMP4; [3]
  aLIZA BMP4 (0.2 nM) % Inh: C (showed less than 30% of inhibitory activity in 0.2 nM-addition zone and showed 30% or more of inhibitory activity in 2 nM-addition zone)
BMP7; [4]
  aLIZA BMP7 (10 nM) % Inh: E (showed less than 30% of inhibitory activity in 100 nM-addition zone and showed 30% or more of inhibitory activity in 1,000 nM-addition zone)

## 62 (Ac-A[KCOpipzaa]VYVD[KCOpipzaa][Bip]PYP[Bip][4Pal][Phe(4-COOH)][Phe(4-COOH)]SCG-NH2; thioether (positions not given here); not fully specified (bridges)) [compound 62]
BMP4; inhibition of SMAD1 phosphorylation by BMP4 stimulus, AlphaLISA, class by peptide concentration zone
  aLISA BMP4: D (showed inhibitory activity of less than 50% in 2 nM-addition zone)
BMP7; inhibition of SMAD1 phosphorylation by BMP7 stimulus, AlphaLISA, class by peptide concentration zone
  aLISA BMP7: ND (the inhibitory activity was less than 30% at the maximum concentration evaluated)

## 36 ({CH2CO}-AKVYV[KCOpipzaa]K[Bip]PYP[Bip]Y[Phe(4-COOH)][Phe(4-COOH)]SCG-NH2; thioether N-17; not fully specified) [compound 36]
BMP4; SMAD1 phosphorylation, peptides of Synthesis 2, peptide 0.02, 0.2, 2 nM
  aLISA BMP4: A (showed an inhibitory activity of 50% or more in a zone to which the peptide was added to in an amount of 0.2 nM)
BMP7; 10 nM BMP7, peptides of Synthesis 2, peptide 1, 10, 100 nM
  aLISA BMP7: ND (the inhibitory activity was less than 30% at the maximum concentration evaluated)

## 100 ({CH2CO}-E[KCOpipzaa]VYV[KCOpipzaa]R[Bip]SYP[Bip]Y[Phe(4-COOH)][Phe(4-COOH)]SC[βAla][dE]-OH; thioether N-17; not fully specified) [compound 100]
BMP4; inhibition of SMAD1 phosphorylation by BMP4 stimulus, peptides of Synthesis 2, classes A-C, ND
  aLISA BMP4: A (showed an inhibitory activity of 50% or more in a zone to which the peptide was added to in an amount of 0.2 nM)
BMP7; inhibition of SMAD1 phosphorylation by BMP7 stimulus, peptides of Synthesis 2, classes A-D, ND
  aLISA BMP7: C (showed less than 50% of inhibitory activity in 10 nM-addition zone and showed 50% or more of inhibitory activity in 100 nM-addition zone)

## 332 (FG[NMeF]G[Bip]ADD[Cha]A[NMeF]LHCG-NH2; not fully specified (N-terminus, bridges)) [compound 332]
BMP4; [5]
  aLISA BMP4 (0.2 nM) % inh: ND (the inhibitory activity was less than 30% at the maximum concentration evaluated)
BMP7; [6]
  aLISA BMP7 (10 nM) % inh: D (showed less than 30% of inhibitory activity in 10 nM-addition zone and showed 30% or more of inhibitory activity in 100 nM-addition zone)

## 333 (FG[NMeF]G[Bip][dA]DD[Cha]A[NMeF]LHCG-NH2; not fully specified (N-terminus, bridges)) [compound 333]
BMP4; [5]
  aLISA BMP4 (0.2 nM) % inh: ND (the inhibitory activity was less than 30% at the maximum concentration evaluated)
BMP7; [6]
  aLISA BMP7 (10 nM) % inh: D (showed less than 30% of inhibitory activity in 10 nM-addition zone and showed 30% or more of inhibitory activity in 100 nM-addition zone)

## 389 (FG[NMeF]G[Bip]GDD[Cha]A[NMePhe(4-Cl)]LHCG-NH2; not fully specified) [compound 389]
BMP4; [1]
  aLISA BMP4 (0.2 nM) % inh: B (showed less than 30% of inhibitory activity in 20 nM-addition zone and showed 30% or more of inhibitory activity in 200 nM-addition zone)
BMP7; [2]
  aLISA BMP7 (10 nM) % inh: E (showed 30% or more of inhibitory activity in 10 nM-addition zone)

## 358 (FG[NMeF]G[Bip]GDE[Cha]A[NMeF]LHCG-NH2; not fully specified (N-terminus, bridges)) [compound 358]
BMP4; [5]
  aLISA BMP4 (0.2 nM) % inh: ND (the inhibitory activity was less than 30% at the maximum concentration evaluated)
BMP7; [6]
  aLISA BMP7 (10 nM) % inh: D (showed less than 30% of inhibitory activity in 10 nM-addition zone and showed 30% or more of inhibitory activity in 100 nM-addition zone)

## 301 (ERV[Phe(4-COOH)]V[KCOpipzaa]R[3Pal(6-Ph)][KCOpipzaa]Y[Hyp][pBph3F]Y[Phe(4-COOH)][Phe(4-COOH)]SCG-NH2; not fully specified (N-terminus, bridges); also: cyclic peptide, ring closure not given here) [compound 301]
BMP4; [7]
  aLIZA BMP4 (0.2 nM) % inh: C (showed less than 30% of inhibitory activity in 0.2 nM-addition zone and showed 30% or more of inhibitory activity in 2 nM-addition zone)
BMP7; [8]
  aLIZA BMP7 (10 nM) % inh: E (showed less than 30% of inhibitory activity in 100 nM-addition zone and showed 30% or more of inhibitory activity in 1,000 nM-addition zone)

## 266 (QRVYVDR[3Pal(6-Ph)]SYV[Bip][4Pal][Phe(4-COOH)][Phe(4-COOH)]SCG-NH2; not fully specified) [compound 266]
BMP4; [7]
  aLIZA BMP4 (0.2 nM) % inh: C (showed less than 30% of inhibitory activity in 0.2 nM-addition zone and showed 30% or more of inhibitory activity in 2 nM-addition zone)
BMP7; [8]
  aLIZA BMP7 (10 nM) % inh: ND (the inhibitory activity was less than 30% at the maximum concentration evaluated)

## 294 (ERV[Phe(4-COOH)][Cha4tH][KCOpipzaa]R[3Pal(6-Ph)][KCOpipzaa]Y[Hyp][Bip]Y[Phe(4-COOH)][Phe(4-COOH)]SCG-NH2; not fully specified) [compound 294]
BMP4; [7]
  aLIZA BMP4 (0.2 nM) % inh: B (showed less than 30% of inhibitory activity in 0.02 nM-addition zone and showed 30% or more of inhibitory activity in 0.2 nM-addition zone)
BMP7; [9]
  aLIZA BMP7 (10 nM) % inh: F (showed 30% or more of inhibitory activity in 100 nM-addition zone)

## 281 (ERV[Phe(4-COOH)]VDR[3Pal(6-Ph)][KCOpipzaa]YV[Bip][4Pal][Phe(4-COOH)][Phe(4-COOH)]SC[βAla]) [compound 281]
BMP4; [7]
  aLIZA BMP4 (0.2 nM) % inh: C (showed less than 30% of inhibitory activity in 0.2 nM-addition zone and showed 30% or more of inhibitory activity in 2 nM-addition zone)
BMP7; [9]
  aLIZA BMP7 (10 nM) % inh: ND (the inhibitory activity was less than 30% at the maximum concentration evaluated)

## 245 (LRVYVDR[3Pal(6-Ph)]SYV[Bip]Y[Phe(4-COOH)][Phe(4-COOH)]SCG) [compound 245]
BMP4; [3]
  aLIZA BMP4 (0.2 nM) % Inh: C (showed less than 30% of inhibitory activity in 0.2 nM-addition zone and showed 30% or more of inhibitory activity in 2 nM-addition zone)
BMP7; [4]
  aLIZA BMP7 (10 nM) % Inh: ND (the inhibitory activity was less than 30% at the maximum concentration evaluated)

## 133 ({CH2CO}-ERVYVD[3Pal(6-NH2)][Bip]PYV[Bip]Y[Phe(4-COOH)][Phe(4-COOH)]SCG-NH2; thioether N-17; not fully specified) [compound 133]
BMP4; inhibition of SMAD1 phosphorylation by BMP4 stimulus, peptides of Synthesis 1, classes D-F, ND
  aLISA BMP4: E (showed less than 50% of inhibitory activity in 0.2 nM-addition zone and showed 50% or more of inhibitory activity in 2 nM-addition zone)
BMP7; inhibition of SMAD1 phosphorylation by BMP7 stimulus, peptides of Synthesis 1, classes E, F, ND
  aLISA BMP7: E (showed 50% or more of inhibitory activity in a zone to which the peptide was added in an amount of 10 nM)
